Reference: publication doi:10.1101/2024.03.23.586376 (bioRxiv, 2024)

Target: RagC (human (endogenous in H1HeLa), UniProt Q9HB90 1-399)
Experiment: co-IP

Chain of RagC (Q9HB90 whole entry): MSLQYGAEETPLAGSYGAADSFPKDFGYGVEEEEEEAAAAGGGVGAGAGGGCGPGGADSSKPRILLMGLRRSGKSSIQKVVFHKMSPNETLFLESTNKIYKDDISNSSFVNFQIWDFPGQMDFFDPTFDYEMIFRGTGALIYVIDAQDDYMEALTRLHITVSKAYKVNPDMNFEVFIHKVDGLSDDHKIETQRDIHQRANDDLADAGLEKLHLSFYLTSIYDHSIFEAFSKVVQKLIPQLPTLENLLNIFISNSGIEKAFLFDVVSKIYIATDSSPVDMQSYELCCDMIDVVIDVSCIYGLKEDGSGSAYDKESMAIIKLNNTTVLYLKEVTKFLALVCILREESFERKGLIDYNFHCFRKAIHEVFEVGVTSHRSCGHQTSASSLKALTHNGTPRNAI

Binder	TFEB/RagC ratio in the co-IP (densitometry), EV-D68-infected cells	TFEB/RagC ratio in the co-IP (densitometry), mock-infected cells
Δ30-TFEB, mutant TFEB construct lacking the first 30 amino acids (RagC binding site), C-terminal GFP-tagged (domain or fragment, UniProt P19484 31-476, looked up) MHYMQQQQQQQQQQLGGPPTPAINTPVHFQSPPPVPGEVLKVQSYLENPTSYHLQQSQHQKVREYLSETYGNKFAAHISPAQGSPKPPPAASPGVRAGHVLSSSAGNSAPNSPMAMLHIGSNPERELDDVIDNIMRLDDVLGYINPEMQMPNTLPLSSSHLNVYSSDPQVTASLVGVTSSSCPADLTQKRELTDAESRALAKERQKKDNHNLIERRRRFNINDRIKELGMLIPKANDLDVRWNKGTILKASVDYIRRMQKDLQKSRELENHSRRLEMTNKQLWLRIQELEMQARVHGLPTTSPSGMNMAELAQQVVKQELPSEEGPGEALMLGAEVPDPEPLPALPPQAPLPLPTQPPSPFHHLDFSHSLSFGGREDEGPPGYPEPLAPGHGSPFPSLSKKDLDLMLLDDSLLPLASDPLLSTMSPEASKASSRRSSFSMEEGDVL	0.22	0.18
wild-type TFEB (transcription factor EB), C-terminal GFP-tagged construct (natural protein, UniProt P19484 1-476, looked up) MASRIGLRMQLMREQAQQEEQRERMQQQAVMHYMQQQQQQQQQQLGGPPTPAINTPVHFQSPPPVPGEVLKVQSYLENPTSYHLQQSQHQKVREYLSETYGNKFAAHISPAQGSPKPPPAASPGVRAGHVLSSSAGNSAPNSPMAMLHIGSNPERELDDVIDNIMRLDDVLGYINPEMQMPNTLPLSSSHLNVYSSDPQVTASLVGVTSSSCPADLTQKRELTDAESRALAKERQKKDNHNLIERRRRFNINDRIKELGMLIPKANDLDVRWNKGTILKASVDYIRRMQKDLQKSRELENHSRRLEMTNKQLWLRIQELEMQARVHGLPTTSPSGMNMAELAQQVVKQELPSEEGPGEALMLGAEVPDPEPLPALPPQAPLPLPTQPPSPFHHLDFSHSLSFGGREDEGPPGYPEPLAPGHGSPFPSLSKKDLDLMLLDDSLLPLASDPLLSTMSPEASKASSRRSSFSMEEGDVL	0.4	1.04
